# In paper PMC12299999:
# Biological target: HA-Foldon (HA1-521 fused at the C-terminus to the bacteriophage T4 fibritin trimerization motif) (influenza A or B virus (strain not stated for this experiment) | bacteriophage T4)
# Assay: native gel or EMSA
substance,measurement,value
HA-Foldon (HA1-521 fused at the C-terminus to the bacteriophage T4 fibritin trimerization motif),stoichiometry N,3
